Data as given in article PMC3056017.

Target: truncated recombinant mOGT (C-654) (human)

km for the peptide in the coupled enzyme assay of OGT transglycosylation (double-reciprocal plot; peptide 0.05 to 0.5 mM, UDP-GlcNAc held at 0.5 mM): 0.16 mM
Binder: YSDSPSTST [Peptide (…)]
